Data as given in publication PMC6102255, “EPO does not promote interaction between the erythropoietin and beta-common receptors” (Scientific Reports, 2018).
Each block holds one molecule with its values, some of them ahead of it.

Legend:
[1] = molecular target: extracellular domains of the erythropoietin receptor (EPOR), in-house purified (UniProt P19235); assay: MST; EPOR labelled with DyLight 650 (30 nM), unlabelled EPOR titrated (0.05-1700 nM); 50 mM Tris, 10 mM MgCl2, 150 mM NaCl, 0.05% Tween 20, pH 7.5; 60% laser power; homodimer to monomers, no EPO
[2] = molecular target: the molecule itself; assay: AUC; sedimentation velocity, 20 °C, 50,000 rpm, 10 mM HEPES, 500 mM NaCl pH 7.2; single proteins (EPO 3 μM; EPOR 1.5, 3, 6 μM; βc 0.75, 1.5, 3 μM) and mixtures of two (EPO + EPOR; βc + EPOR)

Kd [1]: 166 nM
Molecule: extracellular domains of the erythropoietin receptor (EPOR), in-house purified (from UniProt P19235 25-250) (domain or fragment)

B1: extracellular regions of the beta-common (βc) receptor, in-house purified (domain or fragment, UniProt P32927 17-443, looked up)
chain: WERSLAGAEETIPLQTLRCYNDYTSHITCRWADTQDAQRLVNVTLIRRVNEDLLEPVSCDLSDDMPWSACPHPRCVPRRCVIPCQSFVVTDVDYFSFQPDRPLGTRLTVTLTQHVQPPEPRDLQISTDQDHFLLTWSVALGSPQSHWLSPGDLEFEVVYKRLQDSWEDAAILLSNTSQATLGPEHLMPSSTYVARVRTRLAPGSRLSGRPSKWSPEVCWDSQPGDEAQPQNLECFFDGAAVLSCSWEVRKEVASSVSFGLFYKPSPDAGEEECSPVLREGLGSLHTRHHCQIPVPDPATHGQYIVSVQPRRAEKHIKSSVNIQMAPPSLNVTKDGDSYSLRWETMKMRYEHIDHTFEIQYRKDTATWKDSKTETLQNAHSMALPALEPSTRYWARVRVRTSRTGYNGIWSEWSEARSWDTESVLPMW
modifications: biotin (EZ link sulfo-NHS biotin) when immobilised in SPR; unmodified otherwise
notes: beta common receptor (βc, shared subunit of the GM-CSF, IL-3 and IL-5 receptors), extracellular regions; Used in SEC, MST, SPR and AUC; Plasmid donated by Dr. Timothy Hercus; purification details are in the Supplementary data; also called βc homodimer; CD131
stoichiometry N [2]: 2
